B1: HDV Ribozyme (parent)
chain: GGCCGGCAUGGUCCCAGCCUCCUCGCUGGCGCCGGCUGGGCAACAUUCCGAGGGGACCGUCCCCUCGGUAAUGGCGAAUGGGACCCA

The variants in this data set derive from B1. Briefly: self-cleavage, relative activity (ratio to wild type); higher = more cleavage; co-transcriptional.
As for GGCCGGCAUGGUCCCAGCCUCCUCGCUGGCGCCGGCUGGGCAGCAUUCCGAGGGGACCGUCCCCUCGGUUAUGGCGAAUGGGACCCA [A43G A70U], the self-cleavage came to 0.743.
For GGCCGGCAUGGUCCCAGCCUCCUCGCUGGCGCCGGCUGGGCAGCAUUCCGAGGGGACCGUCCCCUCGGUAAUGGCGGAUGGGACCCA [A43G A77G], the self-cleavage is 0.332.
The value for GGCCGGCAUGGUCCCAGCCUCCUCGCUGGCGCCGGCUGGGCAGCAUUCCGAGGGGACCGUCCCCUCGGUAAUGGCGCAUGGGACCCA [A43G A77C] was 0.0723; that for GGCCGGCAUGGUCCCAGCCUCCUCGCUGGCGCCGGCUGGGCAGCAUUCCGAGGGGACCGUCCCCUCGGUAAUGGCGACUGGGACCCA [A43G A78C] was 0.0415.
The value for GGCCGGCAUGGUCCCAGCCUCCUCGCUGGCGCCGGCUGGGCAGCAUUCCGAGGGGACCGUCCCCUCGGUAAUGGCGAUUGGGACCCA [A43G A78U] was 0.178; that for GGCCGGCAUGGUCCCAGCCUCCUCGCUGGCGCCGGCUGGGCACCAUUCCGAGGGGACCGUCCCCUCGGGAAUGGCGAAUGGGACCCA [A43C U69G] was 0.68.
Then GGCCGGCAUGGUCCCAGCCUCCUCGCUGGCGCCGGCUGGGCACCAUUCCGAGGGGACCUUCCCCUCGGUAAUGGCGAAUGGGACCCA [A43C G59U], with 0.639; and GGCCGGCAUGGUCCCAGCCUCCUCGCUGGCGCCGGCUGGGCACCAUUCCGAGGGGACCCUCCCCUCGGUAAUGGCGAAUGGGACCCA [A43C G59C], with 0.322; and GGCCGGCAUGGUCCCAGCCUCCUCGCUGGCGCCGGCUGGGCAGCAUUCCGAGGGGACCGUCCCCUCGGUAAUGGCGAAUGGGACCUA [A43G C86U], with 0.739.
In the case of GGCCGGCAUGGUCCCAGCCUCCUCGCUGGCGCCGGCUGGGCACCAUUCCGAGGGGACCGUCCCCUCGCUAAUGGCGAAUGGGACCCA [A43C G68C], the self-cleavage was determined as 0.283.
The value for GGCCGGCAUGGUCCCAGCCUCCUCGCUGGCGCCGGCUGGGCACCAUUCCGAGGCGACCGUCCCCUCGGUAAUGGCGAAUGGGACCCA [A43C G54C] was 0.403; that for GGCCGGCAUGGUCCCAGCCUCCUCGCUGGCGCCGGCUGGGCAGCAUUACGAGGGGACCGUCCCCUCGGUAAUGGCGAAUGGGACCCA [A43G C48A] was 0.81.
The value for GGCCGGCAUGGUCCCAGCCUCCUCGCUGGCGCCGGCUGGGCAGAAUUCCGAGGGGACCGUCCCCUCGGUAAUGGCGAAUGGGACCCA [A43G C44A] was 0.684; that for GGCCGGCAUGGUCCCAGCCUCCUCGCUGGCGCCGGCUGGGCACCAUUCCGAGGGGACCGUCCCCUCAGUAAUGGCGAAUGGGACCCA [A43C G67A] was 0.322.
Then GGCCGGCAUGGUCCCAGCCUCCUCGCUGGCGCCGGCUGGGCAGCAUUCCGAGGGGACCGUCCCCUCGGUAAUAGCGAAUGGGACCCA [A43G G73A], with 0.219; and GGCCGGCAUGGUCCCAGCCUCCUCGCUGGCGCCGGCUGGGCAGCAUUCCGAGGGGACCUUCCCCUCGGUAAUGGCGAAUGGGACCCA [A43G G59U], with 0.601.
Regarding GGCCGGCAUGGUCCCAGCCUCCUCGCUGGCGCCGGCUGGGCAGCAUUCCGAGGGGACCCUCCCCUCGGUAAUGGCGAAUGGGACCCA [A43G G59C], the self-cleavage was determined as 0.637.
For the variant GGCCGGCAUGGUCCCAGCCUCCUCGCUGGCGCCGGCUGGGCACCAUUCCGAGGGGACCGUCCCCUCGGUAAUUGCGAAUGGGACCCA [A43C G73U], the self-cleavage was 0.604.
In the case of GGCCGGCAUGGUCCCAGCCUCCUCGCUGGCGCCGGCUGGGCAGCAUUCCGUGGGGACCGUCCCCUCGGUAAUGGCGAAUGGGACCCA [A43G A51U], the self-cleavage worked out at 0.646.
Take GGCCGGCAUGGUCCCAGCCUCCUCGCUGGCGCCGGCUGGGCAGCAUUCCGCGGGGACCGUCCCCUCGGUAAUGGCGAAUGGGACCCA [A43G A51C]: the self-cleavage stood at 0.745.
Then GGCCGGCAUGGUCCCAGCCUCCUCGCUGGCGCCGGCUGGGCAGCAUUCCGAGGGGACCGUCCCCUAGGUAAUGGCGAAUGGGACCCA [A43G C66A], with 0.554; and GGCCGGCAUGGUCCCAGCCUCCUCGCUGGCGCCGGCUGGGCAGCAUUCCGAGGGGACCGUCCCCUCGGUAGUGGCGAAUGGGACCCA [A43G A71G], with 0.68; and GGCCGGCAUGGUCCCAGCCUCCUCGCUGGCGCCGGCUGGGCAGCAUUCCGAGGGGACCGUCACCUCGGUAAUGGCGAAUGGGACCCA [A43G C62A], with 0.554.
The value for GGCCGGCAUGGUCCCAGCCUCCUCGCUGGCGCCGGCUGGGCAGCAUUCCGAGGGGACCGUCCCCUCAGUAAUGGCGAAUGGGACCCA [A43G G67A] was 0.804; that for GGCCGGCAUGGUCCCAGCCUCCUCGCUGGCGCCGGCUGGGCAGCAUUCCGAGGGGACCGUCCCCUCUGUAAUGGCGAAUGGGACCCA [A43G G67U] was 0.527; that for GGCCGGCAUGGUCCCAGCCUCCUCGCUGGCGCCGGCUGGGCAGCAUUCCGAGGGGACCGUCCCCUCGGUAAUGCCGAAUGGGACCCA [A43G G74C] was 0.0791.
The value for GGCCGGCAUGGUCCCAGCCUCCUCGCUGGCGCCGGCUGGGCAGCAUUCCGAGGGGACCGUCCCCUCGGUAAUGUCGAAUGGGACCCA [A43G G74U] was 0.243; that for GGCCGGCAUGGUCCCAGCCUCCUCGCUGGCGCCGGCUGGGCAGCAUUCCGAGUGGACCGUCCCCUCGGUAAUGGCGAAUGGGACCCA [A43G G53U] was 0.577.
Regarding GGCCGGCAUGGUCCCAGCCUCCUCGCUGGCGCCGGCUGGGCAGCAUUCCGAGCGGACCGUCCCCUCGGUAAUGGCGAAUGGGACCCA [A43G G53C], the self-cleavage came out at 0.554.
The value for GGCCGGCAUGGUCCCAGCCUCCUCGCUGGCGCCGGCUGGGCACCAUUCCGAGGGGACCGUCCCCUCGGUAAUGGCGAAUGGAACCCA [A43C G82A] was 0.185; that for GGCCGGCAUGGUCCCAGCCUCCUCGCUGGCGCCGGCUGGGCACCAUUCCGAGGGGACCGUCCCCUCGGUAAUGGCGAAUGGUACCCA [A43C G82U] was 0.0545; that for GGCCGGCAUGGUCCCAGCCUCCUCGCUGGCGCCGGCUGGGCAGCAUUCCGAGGGGACCGUCCUCUCGGUAAUGGCGAAUGGGACCCA [A43G C63U] was 0.615.
